From patent publication US20040033600A1

How the values were obtained:
Assay in all cases: cell-based or functional assay
[1] = biological target: Full length MmRXR (mouse Mus musculus RXRalpha) (Mus musculus) (UniProt P28700)
[2] = biological target: VP16CfEcRCDEF (VP16 activation domain fused to CfEcRCDEF) (Choristoneura fumiferana)
[3] = biological target: VP16DmEcRCDEF (VP16 activation domain fused to DmEcRCDEF) (Drosophila melanogaster)
[4] = biological target: VP16CfUSPDEF (VP16 activation domain fused to the D, E and F domains of Choristoneura fumiferana USP) (Choristoneura fumiferana)
[5] = biological target: VP16MmRXRDEF (VP16 activation domain fused to the DEF domains of mouse RXR) (Mus musculus)

Full length MmRXR (mouse Mus musculus RXRalpha) (Mus musculus), sequence (P28700 whole entry, the tested form may be a part): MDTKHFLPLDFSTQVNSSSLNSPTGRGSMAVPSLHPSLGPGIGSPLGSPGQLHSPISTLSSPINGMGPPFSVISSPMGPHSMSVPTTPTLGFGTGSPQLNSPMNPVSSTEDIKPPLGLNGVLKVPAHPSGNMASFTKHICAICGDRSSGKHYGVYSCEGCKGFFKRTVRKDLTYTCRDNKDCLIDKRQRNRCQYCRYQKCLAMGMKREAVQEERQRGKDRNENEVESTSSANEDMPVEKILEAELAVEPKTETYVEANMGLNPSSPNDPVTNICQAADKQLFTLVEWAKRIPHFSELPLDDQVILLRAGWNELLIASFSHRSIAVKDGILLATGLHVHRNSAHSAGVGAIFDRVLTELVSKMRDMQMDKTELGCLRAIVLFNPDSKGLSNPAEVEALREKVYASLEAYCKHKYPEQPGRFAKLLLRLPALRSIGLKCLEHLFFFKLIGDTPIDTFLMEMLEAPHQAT

Substance: Drosophila melanogaster EcR with a modified DNABD fused to VP16AD (EcR component of the DmVgRXR system, Invitrogen)
- Mean Fold Activation Through N-(2-ethyl-3-methoxybenzoyl)-N'-(3,5-dimethylbenzoyl)-N'-t-butylhydrazine; pIND(SP1)LacZ reporter, 3T3 cells (switch 1.8) [1]: 21 fold
- Mean Fold Activation Through N-(2-ethyl-3-methoxybenzoyl)-N'-(3,5-dimethylbenzoyl)-N'-t-butylhydrazine; pIND(SP1)LacZ reporter, 293 cells (switch 1.8) [1]: 21 fold
- Mean Fold Activation with 50 µM N-(2-ethyl-3-methoxybenzoyl)-N'-(3,5-dimethylbenzoyl)-N'-t-butylhydrazine; pIND(SP1)LacZ reporter, CHO cells (switch 1.8) [1]: 14 fold

Substance: GAL4MmRXRDEF (GAL4 DNA binding domain fused to MmRXRDEF)
- Mean Fold Activation Through N-(2-ethyl-3-methoxybenzoyl)-N'-(3,5-dimethylbenzoyl)-N'-t-butylhydrazine; pGAL4RELuc reporter, 3T3 cells (switch 1.3) [2]: 47 fold
- Mean Fold Activation Through N-(2-ethyl-3-methoxybenzoyl)-N'-(3,5-dimethylbenzoyl)-N'-t-butylhydrazine; pGAL4RELuc reporter, 293 cells (switch 1.3) [2]: 17 fold
- Mean Fold Activation with 50 µM N-(2-ethyl-3-methoxybenzoyl)-N'-(3,5-dimethylbenzoyl)-N'-t-butylhydrazine; pGAL4RELuc reporter, CHO cells (switch 1.3) [2]: 85 fold
- Mean Fold Induction at 1.0 µM Concentration of Muristerone A; reporter gene, 3T3 cells (switch 1.3) [2]: 1 fold
- Mean Fold Induction at 1.0 µM Concentration of N'-(3,4-(1,2-ethylenedioxy)-2-methylbenzoyl)-N'-(3,5-dimethylbenzoyl)-N'-tert-butylhydrazine; reporter gene, 3T3 cells (switch 1.3) [2]: 54 fold
- Mean Fold Induction at 1.0 µM Concentration of N-(2-ethyl-3-methoxybenzoyl)-N'-(3,5-dimethylbenzoyl)-N'-tert-butylhydrazine; reporter gene, 3T3 cells (switch 1.3) [2]: 71 fold
- Mean Fold Induction at 1.0 µM Concentration of Ponasterone A; reporter gene, 3T3 cells (switch 1.3) [2]: 1 fold
- Mean Fold Activation Through N-(2-ethyl-3-methoxybenzoyl)-N'-(3,5-dimethylbenzoyl)-N'-t-butylhydrazine; pGAL4RELuc reporter, 3T3 cells (switch 1.4) [3]: 269 fold
- Mean Fold Activation Through N-(2-ethyl-3-methoxybenzoyl)-N'-(3,5-dimethylbenzoyl)-N'-t-butylhydrazine; pGAL4RELuc reporter, 293 cells (switch 1.4) [3]: 3 fold
- Mean Fold Activation with 50 µM N-(2-ethyl-3-methoxybenzoyl)-N'-(3,5-dimethylbenzoyl)-N'-t-butylhydrazine; pGAL4RELuc reporter, CHO cells (switch 1.4) [3]: 312 fold

Substance: GAL4CfEcRDEF (GAL4 DNA binding domain fused to the D, E and F domains of Choristoneura fumiferana EcR)
- Mean Fold Activation Through N-(2-ethyl-3-methoxybenzoyl)-N'-(3,5-dimethylbenzoyl)-N'-t-butylhydrazine; pGAL4RELuc reporter, 3T3 cells (switch 1.2) [4]: 2 fold
- Mean Fold Activation Through N-(2-ethyl-3-methoxybenzoyl)-N'-(3,5-dimethylbenzoyl)-N'-t-butylhydrazine; pGAL4RELuc reporter, 293 cells (switch 1.2) [4]: 2 fold
- Mean Fold Activation with 50 µM N-(2-ethyl-3-methoxybenzoyl)-N'-(3,5-dimethylbenzoyl)-N'-t-butylhydrazine; pGAL4RELuc reporter, CHO cells (switch 1.2) [4]: 2 fold
- Mean Fold Activation Through N-(2-ethyl-3-methoxybenzoyl)-N'-(3,5-dimethylbenzoyl)-N'-t-butylhydrazine; pGAL4RELuc reporter, 3T3 cells (switch 1.1) [5]: 1120 fold
- Mean Fold Activation Through N-(2-ethyl-3-methoxybenzoyl)-N'-(3,5-dimethylbenzoyl)-N'-t-butylhydrazine; pGAL4RELuc reporter, 293 cells (switch 1.1) [5]: 125 fold
- Mean Fold Activation with 50 µM N-(2-ethyl-3-methoxybenzoyl)-N'-(3,5-dimethylbenzoyl)-N'-t-butylhydrazine; pGAL4RELuc reporter, CHO cells (switch 1.1) [5]: 267 fold
- Mean Fold Induction at 1.0 µM Concentration of Muristerone A; reporter gene, 3T3 cells (switch 1.1) [5]: 1 fold
- Mean Fold Induction at 1.0 µM Concentration of N'-(3,4-(1,2-ethylenedioxy)-2-methylbenzoyl)-N'-(3,5-dimethylbenzoyl)-N'-tert-butylhydrazine; reporter gene, 3T3 cells (switch 1.1) [5]: 601 fold
- Mean Fold Induction at 1.0 µM Concentration of N-(2-ethyl-3-methoxybenzoyl)-N'-(3,5-dimethylbenzoyl)-N'-tert-butylhydrazine; reporter gene, 3T3 cells (switch 1.1) [5]: 116 fold
- Mean Fold Induction at 1.0 µM Concentration of Ponasterone A; reporter gene, 3T3 cells (switch 1.1) [5]: 1 fold

Substance: CfVgRXR EcR component: truncated CfEcR comprising a partial A/B domain and the complete CDEF domains, fused to VP16AD
- Mean Fold Activation Through N-(2-ethyl-3-methoxybenzoyl)-N'-(3,5-dimethylbenzoyl)-N'-t-butylhydrazine; pIND(SP1)LacZ reporter, 3T3 cells (switch 1.9) [1]: 19 fold
- Mean Fold Activation Through N-(2-ethyl-3-methoxybenzoyl)-N'-(3,5-dimethylbenzoyl)-N'-t-butylhydrazine; pIND(SP1)LacZ reporter, 293 cells (switch 1.9) [1]: 12 fold
- Mean Fold Activation with 50 µM N-(2-ethyl-3-methoxybenzoyl)-N'-(3,5-dimethylbenzoyl)-N'-t-butylhydrazine; pIND(SP1)LacZ reporter, CHO cells (switch 1.9) [1]: 27 fold

Substance: GAL4CfUSPDEF (GAL4 DNA binding domain fused to CfUSPDEF)
- Mean Fold Activation Through N-(2-ethyl-3-methoxybenzoyl)-N'-(3,5-dimethylbenzoyl)-N'-t-butylhydrazine; pGAL4RELuc reporter, 3T3 cells (switch 1.5) [2]: 3 fold
- Mean Fold Activation Through N-(2-ethyl-3-methoxybenzoyl)-N'-(3,5-dimethylbenzoyl)-N'-t-butylhydrazine; pGAL4RELuc reporter, 293 cells (switch 1.5) [2]: 2 fold
- Mean Fold Activation with 50 µM N-(2-ethyl-3-methoxybenzoyl)-N'-(3,5-dimethylbenzoyl)-N'-t-butylhydrazine; pGAL4RELuc reporter, CHO cells (switch 1.5) [2]: 2 fold
